From US20250339531A1, “DUX4 POLYPEPTIDES AND NUCLEIC ACIDS FOR TREATING INFLAMMATORY AND AUTOIMMUNE CONDITIONS” (Fred Hutchinson Cancer Center, priority 2021, published 2025)

B1: P26196 (protein, UniProt P26196 1-483, looked up)
chain: MSTARTENPVIMGLSSQNGQLRGPVKPTGGPGGGGTQTQQQMNQLKNTNTINNGTQQQAQSMTTTIKPGDDWKKTLKLPPKDLRIKTSDVTSTKGNEFEDYCLKRELLMGIFEMGWEKPSPIQEESIPIALSGRDILARAKNGTGKSGAYLIPLLERLDLKKDNIQAMVIVPTRELALQVSQICIQVSKHMGGAKVMATTGGTNLRDDIMRLDDTVHVVIATPGRILDLIKKGVAKVDHVQMIVLDEADKLLSQDFVQIMEDIILTLPKNRQILLYSATFPLSVQKFMNSHLQKPYEINLMEELTLKGVTQYYAYVTERQKVHCLNTLFSRLQINQSIIFCNSSQRVELLAKKISQLGYSCFYIHAKMRQEHRNRVFHDFRNGLCRNLVCTDLFTRGIDIQAVNVVINFDFPKLAETYLHRIGRSGRFGHLGLAINLITYDDRFNLKSIEEQLGTEIKPIPSNIDKSLYVAEYHSEPVEDEKP
modifications: full-length
B2: O94919 (protein, UniProt O94919 1-500, looked up)
chain: MGTARWLALGSLFALAGLLEGRLVGEEEAGFGECDKFFYAGTPPAGLAADSHVKICQRAEGAERFATLYSTRDRIPVYSAFRAPRPAPGGAEQRWLVEPQIDDPNSNLEEAINEAEAITSVNSLGSKQALNTDYLDSDYQRGQLYPFSLSSDVQVATFTLTNSAPMTQSFQERWYVNLHSLMDRALTPQCGSGEDLYILTGTVPSDYRVKDKVAVPEFVWLAACCAVPGGGWAMGFVKHTRDSDIIEDVMVKDLQKLLPFNPQLFQNNCGETEQDTEKMKKILEVVNQIQDEERMVQSQKSSSPLSSTRSKRSTLLPPEASEGSSSFLGKLMGFIATPFIKLFQLIYYLVVAILKNIVYFLWCVTKQVINGIESCLYRLGSATISYFMAIGEELVSIPWKVLKVVAKVIRALLRILCCLLKAICRVLSIPVRVLVDVATFPVYTMGAIPIVCKDIALGLGGTVSLLFDTAFGTLGGLFQVVFSVCKRIGYKVTFDNSGEL
modifications: full-length
B3: Q9UN86 (protein, UniProt Q9UN86 1-482, looked up)
chain: MVMEKPSPLLVGREFVRQYYTLLNKAPEYLHRFYGRNSSYVHGGVDASGKPQEAVYGQNDIHHKVLSLNFSECHTKIRHVDAHATLSDGVVVQVMGLLSNSGQPERKFMQTFVLAPEGSVPNKFYVHNDMFRYEDEVFGDSEPELDEESEDEVEEEQEERQPSPEPVQENANSGYYEAHPVTNGIEEPLEESSHEPEPEPESETKTEELKPQVEEKNLEELEEKSTTPPPAEPVSLPQEPPKAFSWASVTSKNLPPSGTVSSSGIPPHVKAPVSQPRVEAKPEVQSQPPRVREQRPRERPGFPPRGPRPGRGDMEQNDSDNRRIIRYPDSHQLFVGNLPHDIDENELKEFFMSFGNVVELRINTKGVGGKLPNFGFVVFDDSEPVQRILIAKPIMFRGEVRLNVEEKKTRAARERETRGGGDDRRDIRRNDRGPGGPRGIVGGGMMRDRDGRGPPPRGGMAQKLGSGRGTGQMEGRFTGQRR
modifications: full-length
B4: P17655 (protein, UniProt P17655 1-700, looked up)
chain: MAGIAAKLAKDREAAEGLGSHDRAIKYLNQDYEALRNECLEAGTLFQDPSFPAIPSALGFKELGPYSSKTRGIEWKRPTEICADPQFIIGGATRTDICQGALGDCWLLAAIASLTLNEEILARVVPLNQSFQENYAGIFHFQFWQYGEWVEVVVDDRLPTKDGELLFVHSAEGSEFWSALLEKAYAKINGCYEALSGGATTEGFEDFTGGIAEWYELKKPPPNLFKIIQKALQKGSLLGCSIDITSAADSEAITFQKLVKGHAYSVTGAEEVESNGSLQKLIRIRNPWGEVEWTGRWNDNCPSWNTIDPEERERLTRRHEDGEFWMSFSDFLRHYSRLEICNLTPDTLTSDTYKKWKLTKMDGNWRRGSTAGGCRNYPNTFWMNPQYLIKLEEEDEDEEDGESGCTFLVGLIQKHRRRQRKMGEDMHTIGFGIYEVPEELSGQTNIHLSKNFFLTNRARERSDTFINLREVLNRFKLPPGEYILVPSTFEPNKDGDFCIRVFSEKKADYQAVDDEIEANLEEFDISEDDIDDGFRRLFAQLAGEDAEISAFELQTILRRVLAKRQDIKSDGFSIETCKIMVDMLDSDGSGKLGLKEFYILWTKIQKYQKIYREIDVDRSGTMNSYEMRKALEEAGFKMPCQLHQVIVARFADDQLIIDFDNFVRCLVRLETLFKIFKQLDPENTGTIELDLISWLCFSVL
modifications: full-length
B5: Q8NC51 (protein, UniProt Q8NC51 1-408, looked up)
chain: MPGHLQEGFGCVVTNRFDQLFDDESDPFEVLKAAENKKKEAGGGGVGGPGAKSAAQAAAQTNSNAAGKQLRKESQKDRKNPLPPSVGVVDKKEETQPPVALKKEGIRRVGRRPDQQLQGEGKIIDRRPERRPPRERRFEKPLEEKGEGGEFSVDRPIIDRPIRGRGGLGRGRGGRGRGMGRGDGFDSRGKREFDRHSGSDRSSFSHYSGLKHEDKRGGSGSHNWGTVKDELTESPKYIQKQISYNYSDLDQSNVTEETPEGEEHHPVADTENKENEVEEVKEEGPKEMTLDEWKAIQNKDRAKVEFNIRKPNEGADGQWKKGFVLHKSKSEEAHAEDSVMDHHFRKPANDITSQLEINFGDLGRPGRGGRGGRGGRGRGGRPNRGSRTDKSSASAPDVDDPEAFPALA
modifications: full-length
B6: P52597 (protein, UniProt P52597 1-415, looked up)
chain: MMLGPEGGEGFVVKLRGLPWSCSVEDVQNFLSDCTIHDGAAGVHFIYTREGRQSGEAFVELGSEDDVKMALKKDRESMGHRYIEVFKSHRTEMDWVLKHSGPNSADSANDGFVRLRGLPFGCTKEEIVQFFSGLEIVPNGITLPVDPEGKITGEAFVQFASQELAEKALGKHKERIGHRYIEVFKSSQEEVRSYSDPPLKFMSVQRPGPYDRPGTARRYIGIVKQAGLERMRPGAYSTGYGGYEEYSGLSDGYGFTTDLFGRDLSYCLSGMYDHRYGDSEFTVQSTTGHCVHMRGLPYKATENDIYNFFSPLNPVRVHIEIGPDGRVTGEADVEFATHEEAVAAMSKDRANMQHRYIELFLNSTTGASNGAYSSQVMQGMGVSAAQATYSGLESQSVSGCYGAGYSGQNSMGGYD
modifications: full-length
B7: Q86YD1 (protein, UniProt Q86YD1 1-416, looked up)
chain: MVRPRRAPYRSGAGGPLGGRGRPPRPLVVRAVRSRSWPASPRGPQPPRIRARSAPPMEGARVFGALGPIGPSSPGLTLGGLAVSEHRLSNKLLAWSGVLEWQEKRRPYSDSTAKLKRTLPCQAYVNQGENLETDQWPQKLIMQLIPQQLLTTLGPLFRNSQLAQFHFTNRDCDSLKGLCRIMGNGFAGCMLFPHISPCEVRVLMLLYSSKKKIFMGLIPYDQSGFVSAIRQVITTRKQAVGPGGVNSGPVQIVNNKFLAWSGVMEWQEPRPEPNSRSKRWLPSHVYVNQGEILRTEQWPRKLYMQLIPQQLLTTLVPLFRNSRLVQFHFTKDLETLKSLCRIMDNGFAGCVHFSYKASCEIRVLMLLYSSEKKIFIGLIPHDQGNFVNGIRRVIANQQQVLQRNLEQEQQQRGMGG
modifications: full-length
B8: Q15233 (protein, UniProt Q15233 1-471, looked up)
chain: MQSNKTFNLEKQNHTPRKHHQHHHQQQHHQQQQQQPPPPPIPANGQQASSQNEGLTIDLKNFRKPGEKTFTQRSRLFVGNLPPDITEEEMRKLFEKYGKAGEVFIHKDKGFGFIRLETRTLAEIAKVELDNMPLRGKQLRVRFACHSASLTVRNLPQYVSNELLEEAFSVFGQVERAVVIVDDRGRPSGKGIVEFSGKPAARKALDRCSEGSFLLTTFPRPVTVEPMDQLDDEEGLPEKLVIKNQQFHKEREQPPRFAQPGSFEYEYAMRWKALIEMEKQQQDQVDRNIKEAREKLEMEMEAARHEHQVMLMRQDLMRRQEELRRMEELHNQEVQKRKQLELRQEEERRRREEEMRRQQEEMMRRQQEGFKGTFPDAREQEIRMGQMAMGGAMGINNRGAMPPAPVPAGTPAPPGPATMMPDGTLGLTPPTTERFGQAATMEGIGAIGGTPPAFNRAAPGAEFAPNKRRRY
modifications: full-length
B9: P29508 (protein, UniProt P29508 1-390, looked up)
chain: MNSLSEANTKFMFDLFQQFRKSKENNIFYSPISITSALGMVLLGAKDNTAQQIKKVLHFDQVTENTTGKAATYHVDRSGNVHHQFQKLLTEFNKSTDAYELKIANKLFGEKTYLFLQEYLDAIKKFYQTSVESVDFANAPEESRKKINSWVESQTNEKIKNLIPEGNIGSNTTLVLVNAIYFKGQWEKKFNKEDTKEEKFWPNKNTYKSIQMMRQYTSFHFASLEDVQAKVLEIPYKGKDLSMIVLLPNEIDGLQKLEEKLTAEKLMEWTSLQNMRETRVDLHLPRFKVEESYDLKDTLRTMGMVDIFNGDADLSGMTGSRGLVLSGVLHKAFVEVTEEGAEAAAATAVVGFGSSPTSTNEEFHCNHPFLFFIRQNKTNSILFYGRFSSP
modifications: full-length

system: proteins that co-immunoprecipitated with DUX4-CTD constructs expressed in MB135 myoblasts; assay: LC-MS of proteins co-immunoprecipitated with DUX4-CTD (Table 1) and western validation; assay type: binding, human; set-up: key to 4. mL1dL2 + Dox + IFNG / 4. + IFNG mix / 4. longCTD + Dox + IFNG / 3. + IFNg + Dox longCTD / 3. + Dox longCTD / 3. + IFNG longCTD: peptide-spectrum matches (PSMs) per protein; conditions: LC-MS counts of the listed protein co-immunoprecipitated with DUX4-CTD bait longCTD; experiment 4, Dox + IFNG
Procedure, shortened: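 FLAG-tagged DUX4-CTD expressed in doxycycline-induced MB135 myoblasts, some also IFNG-treated; nuclear lysates in pH 7.4 NP-40 IP buffer were pre-cleared, then anti-FLAG immunoprecipitated 3 h at 4 °C. For LC-MS, FLAG-peptide elution, in-gel trypsin digest, Orbitrap analysis; proteins with ≥2 PSMs in both experiments categorised and ranked by total PSMs.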

Point of comparison: B6, “4. longCTD + Dox + IFNG” value 1. Against it:
- B1 — the same, 1
- B2 — higher, 2
- B3 — the same, 1
- B4 — higher, 3
- B5 — the same, 1
- B7 — higher, 2

same assay, conditions: bait longCTD; experiment 3, Dox only

Point of comparison: B5, “3. + Dox longCTD” value 2. Against it:
- B1 — the same, 2
- B3 — lower, 1
- B8 — lower, 1
- B6 — lower, 1
- B7 — the same, 2

same assay, conditions: bait longCTD; experiment 3, IFNg + Dox

Point of comparison: B2, “3. + IFNg + Dox longCTD” value 1. Against it:
- B1 — higher, 3
- B3 — higher, 3
- B4 — the same, 1
- B5 — higher, 3
- B8 — higher, 8
- B6 — higher, 4
- B9 — higher, 2

same assay, conditions: sum over all samples

Point of comparison: B3, “SUM of PSMS” value 6. Against it:
- B1 — the same, 6
- B2 — lower, 5
- B4 — lower, 4
- B5 — the same, 6
- B8 — higher, 10
- B6 — the same, 6
- B9 — lower, 4
- B7 — lower, 4
